In PMC5702341, “Identification of Antibody and Small Molecule Antagonists of Ferroportin-Hepcidin Interaction” (Frontiers in Pharmacology, 2017):
pEC50, pIC50: −log10 of the molar value. Where a SMILES comes first, the peptide text is derived from it. Bridges are numbered along the chain shown (N, C = ends). Side-chain parts run from the residue outwards. The star is where a group is joined. X1 = Nc1ccc2c(c1)Oc1cc(N)ccc1C21OC(=O)c2cc(C(=O)*)ccc21; Ahx = NCCCCCC(=O)O

Experiments:
[1] = molecular target: T1, ferroportin-hepcidin interaction (T-REx/FPN-V5 cells) (Homo sapiens, UniProt Q9NP59); assay: RhoG-hepcidin uptake assay; type: cell-based; conditions: compound 1 h prior to 250 nM RhoG-hepcidin for 1 h; read-out: IC50 inhibition of RhoG-hepcidin uptake
T1 sequence (Q9NP59 1-571): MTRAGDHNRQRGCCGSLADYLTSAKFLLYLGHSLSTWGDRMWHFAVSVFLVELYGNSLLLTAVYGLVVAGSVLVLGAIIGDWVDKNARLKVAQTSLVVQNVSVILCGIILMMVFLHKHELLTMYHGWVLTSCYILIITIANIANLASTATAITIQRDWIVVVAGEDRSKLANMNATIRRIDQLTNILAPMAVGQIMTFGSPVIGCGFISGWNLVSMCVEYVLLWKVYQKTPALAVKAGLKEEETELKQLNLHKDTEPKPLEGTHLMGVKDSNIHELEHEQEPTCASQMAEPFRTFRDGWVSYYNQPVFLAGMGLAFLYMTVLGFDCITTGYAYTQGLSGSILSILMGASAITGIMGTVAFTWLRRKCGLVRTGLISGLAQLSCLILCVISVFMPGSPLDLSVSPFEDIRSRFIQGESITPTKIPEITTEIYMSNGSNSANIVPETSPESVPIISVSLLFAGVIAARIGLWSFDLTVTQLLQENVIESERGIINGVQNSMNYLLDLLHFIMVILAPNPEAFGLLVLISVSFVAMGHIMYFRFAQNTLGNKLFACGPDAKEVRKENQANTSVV
T1 sequence (P81172 60-84 partner): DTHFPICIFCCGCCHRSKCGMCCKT
Source text: (§1) In an effort to identify small molecule inhibitors of hepcidin-induced FPN internalization, we ran a small molecule screen using the cell-based iron response reporter assay described above. […] Molecules that prevented intracellular iron accumulation were further tested in the RhoG-hepcidin uptake and FPN internalization assays.

[2] = molecular target: T1, ferroportin-hepcidin interaction (T-REx/FPN-V5 cells); assay: RhoG-hepcidin reversibility (washout) assay; type: cell-based; conditions: for pIC50: cells treated 1 h, washed to remove unbound compound, then RhoG-hepcidin, N = 3, read-out: IC50 blocking RhoG-hepcidin binding/uptake after washout
Method: T-REx™/FPN-V5 cells plated in 96-well Packard ViewPlates at 50,000 cells/well and induced overnight as described for the BLA screening assay. […] As a control, cells were treated identically except that compound was not removed before addition of RhoG-hepcidin. Cells were fixed with 4% formaldehyde (Thermo Fisher) and stained with Hoechst nuclear dye. RhoG-Hepc uptake per cell was measured by cellular imaging.
as §1
(A) T-REx™/FPN-V5 cells were induced overnight and treated with small molecules for 1 h prior to addition of RhoG-hepc for 2 h. Cells were fixed/permeabilized and stained with Ab 38G6; blue = nuclei, green = RhoG-hepcidin, red = FPN. Scale bar = 20 μm.
Reactivity with cell-based, folded FPN was assessed by the hepcidin uptake assay (Figure 9C); reactivity with the linear peptide was assessed by mass spectrometry (Figure 10A).

FPN (T-REx/FPN-V5 cells) = assay: RhoG-hepcidin binding and displacement at 0°C on FPN-expressing cells; type: cell-based, human; conditions: 2 h on ice, then 10X unlabeled hepcidin for 2 h on ice
Method: To verify this work, RhoG-hepcidin was incubated with either uninduced or induced cells at 0°C. Contrary to the previous report, RhoG-hepcidin bound to FPN at this low temperature. To assess the reversibility of hepcidin binding to FPN, we incubated FPN-expressing cells with RhoG-hepcidin at 0°C to prevent internalization; we then added excess unlabeled hepcidin to determine if the labeled hepcidin could be displaced. […] We confirmed that FPN was not internalized using antibody 45D8 (Figure 11A).
(A) T-REx™/FPN-V5 cells were allowed to equilibrate on ice for 15 min prior to addition of RhoG-hepcidin for 2 h on ice; 10X unlabeled hepcidin was added for 2 additional hours on ice. FPN was detected with Ab 45D8; scale bar = 20 μm. (B) Non-glycosylated FPN binds hepcidin and internalizes. T-REx™/FPN-V5 cells were treated ± 0.3 μg/ml tunicamycin (Tm) for 18 h, followed by treatment with 500 nM hepcidin (Hepc) for 5 h. Blot was probed with anti-V5 Ab for FPN detection and anti-cyclophilin as loading control. (C) Induced HEK-FPN-V5 cells were treated ± 0.25 μg/ml tunicamycin (Tm) for 18 h, followed by RhoG-hepcidin for 3 h; uptake was quantitated by cellular imaging (N = 4, mean ± sd).

[3] = molecular target: ferroportin (T-REx/FPN-V5 cells) (Homo sapiens, UniProt Q9NP59); assay: cell-based
Method: Cells were plated in 96-well Poly-D-Lysine coated plates (BD) at 50,000 cells/well and induced overnight with 10 ng/ml doxycycline (Clontech). […] FPN staining was completed as described above except that the incubations were performed at room temperature. […] Nuclei were stained with Hoechst dye. Cell surface or total FPN or intracellular hepcidin was quantitated with cellular imaging. Uninduced (non-FPN-expressing) cells served as a negative control. Images were captured from Arrayscan™ VTI (Thermo Fisher) equipped with Zeiss microscope optics and Hamamatsu ORCA®-ER CCD camera. Images were captured with 10X or 20X objectives and analyzed with the Spot Detector bioapplication. A minimum of 300 cells per well were analyzed for each condition.
T-REx™/FPN-V5 were plated in 384-well Poly-D-Lysine coated plates (BD) at 15,000 cell/well and induced overnight as described for RhoG-hepcidin uptake assay. […] Plates were scanned on Thermo Fisher ArrayScan™ HCS Reader and analyzed with Spot Detector application. A minimum of 300 cells/well were analyzed.
Alanine mutant peptides were tested for activity in both BLA and ferroportin internalization assays.
Using these antibodies, it was possible to develop a quantitative cellular imaging assay that measured hepcidin-induced FPN internalization. […]

[4] = molecular target: human ferroportin with V5 tag, on doxycycline-induced T-REx/FPN-V5 cells (human) (UniProt Q9NP59)
[5] = molecular target: human ferroportin with V5 tag, on doxycycline-induced T-REx/FPN-V5 cells (human) (UniProt Q9NP59); remark: listed apart in the source
[6] = molecular target: endogenous human ferroportin on T47D cells (human (endogenous in T47D)) (UniProt Q9NP59)
[7] = molecular target: human ferroportin with V5 tag, on doxycycline-induced T-REx/FPN-V5 cells (human) (UniProt Q9NP59); remark: listed apart in the source

Row | Compound | FPN internalization assay EC50 (surface FPN by cellular imaging, T-REx/FPN-V5 cells) [5] | Iron response assay EC50 (β-lactamase reporter under the ferritin IRE, T-REx/FPN-V5/IRE-BLA cells) [5] | also measured
1 | O=S(=O)(c1ccc(Cl)cc1)c1cnc2ccccc2n1 [Compound 1, 2-[(4-chlorophenyl)sulfonyl]quinoxaline] |  |  | pIC50 [1]: 6.85; inhibition at 100 µM ([2]; 100 μM compound, 1 h, in cells, read-out: inhibition of hepcidin uptake): 100%; pIC50 [2]: 7.00
2 | CC[C@H](C)[C@@H]1NC(=O)[C@@H](NC(=O)[C@@H](NC(=O)[C@@H]2CCCN2C(=O)[C@H](Cc2ccccc2)NC(=O)[C@H](Cc2c[nH]cn2)NC(=O)[C@@H](NC(=O)[C@@H](N)CC(=O)O)[C@@H](C)O)[C@@H](C)CC)CSSC[C@@H](C(=O)N[C@@H](CCCCN)C(=O)N[C@H](C(=O)O)[C@@H](C)O)NC(=O)[C@@H]2CSSC[C@@H]3NC(=O)[C@@H]4CSSC[C@H](NC(=O)[C@H](Cc5ccccc5)NC1=O)C(=O)N[C@@H](CSSC[C@H](NC(=O)[C@H](CCCCN)NC(=O)[C@H](CCCCNC(=O)CCCCCNC(=O)c1ccc5c(c1)C(=O)OC51c5ccc(N)cc5Oc5cc(N)ccc51)NC(=O)[C@H](CCCNC(=N)N)NC(=O)[C@H](Cc1c[nH]cn1)NC3=O)C(=O)NCC(=O)N[C@@H](CCSC)C(=O)N2)C(=O)NCC(=O)N4 [RhoG-hepcidin, [Lys17(N^ε-Rhodamine green amino hexanoyl)]hepcidin] (H-DTHFPICIFCCGCCHRK([Ahx-X1])KCGMCCKT-OH; disulfide 7-23, 10-13, 11-19, 14-22 (inferred); C-terminus assumed) |  |  | reversibility of binding to FPN (FPN (T-REx/FPN-V5 cells)): reversible; pEC50 [3]: ~7.52
3 | NC(=O)CI [iodoacetamide, reference compound] |  |  | inhibition of hepcidin uptake ([2]; 100 μM compound, 1 h, in cells): ~ 50%; pIC50 [2]: 4.07
4 | [Lys17(N-epsilon-Rhodamine green amino hexanoyl)]hepcidin (peptide) |  |  | EC50 of FPN internalization, T-REx/FPN-V5 cells, 3 h, cellular imaging with Ab 38C8 [4]: 30 nM
5 | hepcidin G12A (peptide) | 212 nM | 107 nM | 
6 | hepcidin G20A (peptide) | 309 nM | 288 nM | 
7 | hepcidin H15A (peptide) | 10 nM | 12 nM | 
8 | hepcidin I6A (peptide) | 247 nM | 634 nM | 
9 | hepcidin K18A (peptide) | 12 nM | 13 nM | 
10 | hepcidin P5A (peptide) | 474 nM | 180 nM | 
11 | hepcidin R16A (peptide) | 56 nM | 57 nM | 
12 | hepcidin S17A (peptide) | 50 nM | 66 nM | 

More lines, main results first:

Row | FPN internalization assay EC50 (surface FPN by cellular imaging, T-REx/FPN-V5 cells) [5] | Iron response assay EC50 (β-lactamase reporter under the ferritin IRE, T-REx/FPN-V5/IRE-BLA cells) [5] | Compound | also measured
13 | 185 nM | 144 nM | hepcidin D1A (peptide) | 
14 | > 3600 nM | > 3600 nM | hepcidin F4A (peptide) | 
15 | 250 nM | 392 nM | hepcidin F9A (peptide) | 
16 | 308 nM | 298 nM | hepcidin H3A (peptide) | 
17 | > 3600 nM | > 3600 nM | hepcidin I8A (peptide) | 
18 | 267 nM | 266 nM | hepcidin K24A (peptide) | 
19 | 162 nM | 112 nM | hepcidin M21A (peptide) | 
20 | 29 nM | 29 nM | hepcidin T2A (peptide) | 
21 | 39 nM | 53 nM | hepcidin T25A (peptide) | 
22 | 51 nM | 63 nM | synthetic human hepcidin (wild type, unlabeled) (peptide) | EC50 of hepcidin-induced FPN internalization, T47D cells, 6 h, surface FPN on live cells by cellular imaging with Ab 38C8 [6]: 13 nM; EC50 of hepcidin-induced FPN internalization, T-REx/FPN-V5 cells, 6 h, surface FPN on live cells by cellular imaging with Ab 38C8 [7]: 11 nM
